Values of other authors as cited in patent publication US8168409B2, “Compositions and methods relating to anti-IGF-1 receptor antibodies” (Amgen Inc., priority 2004, dated 2012).

Molecular target: IGF-1R (Homo sapiens, UniProt P08069)
Details: biphasic binding; high affinity component

Kd: ~0.2 nM
Substance: IGF-2: insulin-like growth factor 2, ligand of IGF-1R
